Assay results as given in publication PMC10397247.

Experiments:
APC1242-AA = biological target: T1, APC1242-AA; assay: two-hybrid library CCmax;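 also: natural log of median RNA to DNA barcode read ratio; higher means stronger binding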
T1 chain: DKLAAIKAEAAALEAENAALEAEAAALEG

APC1916-AA = biological target: T2, APC1916-AA; assay: two-hybrid library CCmax; settings: mean of both orientations;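 also: natural log of median RNA to DNA barcode read ratio; higher means stronger binding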
T2 chain: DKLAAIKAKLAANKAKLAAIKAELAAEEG

APC1987-AA = biological target: T3, APC1987-AA; assay: two-hybrid library CCmax; settings: mean of both orientations;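 also: natural log of median RNA to DNA barcode read ratio; higher means stronger binding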
T3 chain: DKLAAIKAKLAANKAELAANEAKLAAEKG

APC222-AA = biological target: T4, APC222-AA; assay: two-hybrid library CCmax; settings: mean of both orientations;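 also: natural log of median RNA to DNA barcode read ratio; higher means stronger binding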
T4 chain: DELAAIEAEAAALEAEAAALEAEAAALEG

APC2257-AA = biological target: T5, APC2257-AA; assay: two-hybrid library CCmax; settings: mean of both orientations;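 also: natural log of median RNA to DNA barcode read ratio; higher means stronger binding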
T5 chain: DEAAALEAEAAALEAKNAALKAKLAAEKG

APC2375-AA = biological target: T6, APC2375-AA; assay: two-hybrid library CCmax; settings: mean of both orientations;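 also: natural log of median RNA to DNA barcode read ratio; higher means stronger binding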
T6 chain: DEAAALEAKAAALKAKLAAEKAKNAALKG

APC2474-AA = biological target: T7, APC2474-AA; assay: two-hybrid library CCmax; settings: mean of both orientations
T7 chain: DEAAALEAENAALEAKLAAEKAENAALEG

APC2543-AA = biological target: T8, APC2543-AA; assay: two-hybrid library CCmax; settings: mean of both orientations
T8 chain: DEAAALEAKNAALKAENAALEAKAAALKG

APC2556-AA = biological target: T9, APC2556-AA; assay: two-hybrid library CCmax; settings: mean of both orientations
T9 chain: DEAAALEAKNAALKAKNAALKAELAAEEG

APC2724-AA = biological target: T10, APC2724-AA; assay: two-hybrid library CCmax; settings: mean of both orientations
T10 chain: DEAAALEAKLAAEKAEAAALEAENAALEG

APC2811-AA = biological target: T11, APC2811-AA; assay: two-hybrid library CCmax; settings: mean of both orientations
T11 chain: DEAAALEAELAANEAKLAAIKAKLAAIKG

APC2981-AA = biological target: T12, APC2981-AA; assay: two-hybrid library CCmax; settings: mean of both orientations
T12 chain: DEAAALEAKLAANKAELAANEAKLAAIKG

APC3265-AA = biological target: T13, APC3265-AA; assay: two-hybrid library CCmax; settings: mean of both orientations
T13 chain: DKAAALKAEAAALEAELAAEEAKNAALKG

APC3323-AA = biological target: T14, APC3323-AA; assay: two-hybrid library CCmax; settings: mean of both orientations
T14 chain: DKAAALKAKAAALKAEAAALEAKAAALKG

APC3354-AA = biological target: T15, APC3354-AA; assay: two-hybrid library CCmax; settings: mean of both orientations
T15 chain: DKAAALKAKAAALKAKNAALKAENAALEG

APC3881-AA = biological target: T16, APC3881-AA; assay: two-hybrid library CCmax; settings: mean of both orientations
T16 chain: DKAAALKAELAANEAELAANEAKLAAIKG

APC4100-AA = biological target: T17, APC4100-AA; assay: two-hybrid library CCmax; settings: mean of both orientations
T17 chain: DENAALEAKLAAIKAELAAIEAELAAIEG

APC4336-AA = biological target: T18, APC4336-AA; assay: two-hybrid library CCmax; settings: mean of both orientations
T18 chain: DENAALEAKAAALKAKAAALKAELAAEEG

APC5009-AA = biological target: T19, APC5009-AA; assay: two-hybrid library CCmax; settings: mean of both orientations
T19 chain: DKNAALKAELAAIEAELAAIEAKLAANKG

APC542-AA = biological target: T20, APC542-AA; assay: two-hybrid library CCmax; settings: mean of both orientations
T20 chain: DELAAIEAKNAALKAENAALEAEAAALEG

APC5531-AA = biological target: T21, APC5531-AA; assay: two-hybrid library CCmax; settings: mean of both orientations
T21 chain: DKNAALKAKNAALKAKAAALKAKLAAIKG

APC6088-AA = biological target: T22, APC6088-AA; assay: two-hybrid library CCmax; settings: mean of both orientations
T22 chain: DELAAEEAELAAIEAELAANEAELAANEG

APC7524-AA = biological target: T23, APC7524-AA; assay: two-hybrid library CCmax; settings: mean of both orientations
T23 chain: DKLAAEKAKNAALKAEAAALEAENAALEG

APC8401-AA = biological target: T24, APC8401-AA; assay: two-hybrid library CCmax; settings: mean of both orientations
T24 chain: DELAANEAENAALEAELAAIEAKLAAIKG

APC8516-AA = biological target: T25, APC8516-AA; assay: two-hybrid library CCmax; settings: mean of both orientations
T25 chain: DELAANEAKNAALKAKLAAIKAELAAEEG

APC9141-AA = biological target: T26, APC9141-AA; assay: two-hybrid library CCmax; settings: mean of both orientations
T26 chain: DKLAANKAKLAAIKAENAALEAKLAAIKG

APC9182-AA = biological target: T27, APC9182-AA; assay: two-hybrid library CCmax; settings: mean of both orientations
T27 chain: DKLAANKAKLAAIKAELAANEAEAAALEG

APC9291-AA = biological target: T28, APC9291-AA; assay: two-hybrid library CCmax; settings: mean of both orientations
T28 chain: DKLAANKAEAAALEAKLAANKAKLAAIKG

APC9806-AA = biological target: T29, APC9806-AA; assay: two-hybrid library CCmax; settings: mean of both orientations
T29 chain: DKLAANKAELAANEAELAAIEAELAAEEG

P11 = biological target: T30, P11; assay: two-hybrid library CC1
T30 chain: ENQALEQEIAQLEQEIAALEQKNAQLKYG

P12 = biological target: T31, P12; assay: two-hybrid library CC1; settings: mean of both orientations
T31 chain: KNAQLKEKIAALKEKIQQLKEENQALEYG

P3 = biological target: T32, P3; assay: two-hybrid library CC1; settings: mean of both orientations
T32 chain: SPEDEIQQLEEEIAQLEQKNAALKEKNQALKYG

P3mS = biological target: T33, P3mS; assay: two-hybrid library CC1; settings: mean of both orientations
T33 chain: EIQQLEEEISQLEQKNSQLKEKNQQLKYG

P4 = biological target: T34, P4; assay: two-hybrid library CC1; settings: mean of both orientations
T34 chain: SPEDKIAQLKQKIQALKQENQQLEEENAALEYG

P4mS = biological target: T35, P4mS; assay: two-hybrid library CC1; settings: mean of both orientations
T35 chain: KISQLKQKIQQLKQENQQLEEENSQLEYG

P5SC1 = biological target: T36, P5SC1; assay: two-hybrid library CC1; settings: mean of both orientations
T36 chain: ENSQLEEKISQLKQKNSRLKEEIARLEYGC

P5SC2 = biological target: T37, P5SC2; assay: two-hybrid library CC1; settings: mean of both orientations
T37 chain: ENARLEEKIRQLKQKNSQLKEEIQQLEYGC

P5 = biological target: T38, P5; assay: two-hybrid library CC1; settings: mean of both orientations
T38 chain: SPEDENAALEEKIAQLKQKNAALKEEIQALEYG

P5mS = biological target: T39, P5mS; assay: two-hybrid library CC1; settings: mean of both orientations
T39 chain: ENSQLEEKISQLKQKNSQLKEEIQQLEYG

P6SC1 = biological target: T40, P6SC1; assay: two-hybrid library CC1; settings: mean of both orientations
T40 chain: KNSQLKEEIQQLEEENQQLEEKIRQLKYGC

P6SC2 = biological target: T41, P6SC2; assay: two-hybrid library CC1; settings: mean of both orientations
T41 chain: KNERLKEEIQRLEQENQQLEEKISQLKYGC

P6 = biological target: T42, P6; assay: two-hybrid library CC1; settings: mean of both orientations
T42 chain: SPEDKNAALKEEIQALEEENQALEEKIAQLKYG

P6mS = biological target: T43, P6mS; assay: two-hybrid library CC1; settings: mean of both orientations
T43 chain: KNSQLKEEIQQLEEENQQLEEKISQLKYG

P7 = biological target: T44, P7; assay: two-hybrid library CC1; settings: mean of both orientations
T44 chain: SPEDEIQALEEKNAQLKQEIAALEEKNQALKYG

P7mS = biological target: T45, P7mS; assay: two-hybrid library CC1; settings: mean of both orientations
T45 chain: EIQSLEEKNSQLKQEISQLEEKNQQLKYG

P8 = biological target: T46, P8; assay: two-hybrid library CC1; settings: mean of both orientations
T46 chain: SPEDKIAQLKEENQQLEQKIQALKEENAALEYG

P8mS = biological target: T47, P8mS; assay: two-hybrid library CC1; settings: mean of both orientations
T47 chain: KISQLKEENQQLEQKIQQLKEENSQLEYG

P9 = biological target: T48, P9; assay: two-hybrid library CC1; settings: mean of both orientations
T48 chain: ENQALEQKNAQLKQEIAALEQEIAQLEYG

B1: APC1242-AA (peptide)
chain: DKLAAIKAEAAALEAENAALEAEAAALEG
B1 showed an interaction score (APC1242-AA) of -1.39, an interaction score (APC1916-AA) of -0.197 and an interaction score (APC1987-AA) of -1.67. For the same binder, the interaction score (APC222-AA) was -1.71, the interaction score (APC2257-AA) was -1.45 and the interaction score (APC2375-AA) was -1.54. It also gave an interaction score (APC2474-AA) of -1.53, an interaction score (APC2543-AA) of -1.38 and an interaction score (APC2556-AA) of -1.73. It also gave an interaction score (APC2724-AA) of -1.96, an interaction score (APC2811-AA) of -1.73 and an interaction score (APC2981-AA) of -1.87. The interaction score (APC3265-AA) was -1.56, the interaction score (APC3323-AA) was -1.85 and the interaction score (APC3354-AA) was -1.74. For the same binder, the interaction score (APC3881-AA) was -1.81, the interaction score (APC4100-AA) was -1.76 and the interaction score (APC4336-AA) was -2.21. For the same binder, the interaction score (APC5009-AA) was -1.74, the interaction score (APC542-AA) was -2.16 and the interaction score (APC5531-AA) was -1.83. The interaction score (APC6088-AA) was -1.12, the interaction score (APC7524-AA) was -1.82 and the interaction score (APC8401-AA) was -1.53. For the same binder, the interaction score (APC8516-AA) was -1.75, the interaction score (APC9141-AA) was -1.7 and the interaction score (APC9182-AA) was -1.34. It also gave an interaction score (APC9291-AA) of -1.76 and an interaction score (APC9806-AA) of -1.43.

B2: P11 (peptide)
chain: ENQALEQEIAQLEQEIAALEQKNAQLKYG
In the case of B2, the interaction score (P11) is reported as -2.71, the interaction score (P12) is reported as 0.313 and the interaction score (P3) is reported as -2.69. It also gave an interaction score (P3mS) of -2.8, an interaction score (P4) of -0.75 and an interaction score (P4mS) of -1.07. The interaction score (P5SC1) was -2.59, the interaction score (P5SC2) was -2.41 and the interaction score (P5) was -2.7. The interaction score (P5mS) was -2.74, the interaction score (P6SC1) was -2.75 and the interaction score (P6SC2) was -2.64. For the same binder, the interaction score (P6) was -2.83, the interaction score (P6mS) was -2.82 and the interaction score (P7) was -2.69. It also gave an interaction score (P7mS) of -2.62, an interaction score (P8) of -2.59 and an interaction score (P8mS) of -2.69. For the same binder, the interaction score (P9) was -2.25.
